Assay results published in patent publication US20110143993A1 (BRIGHAM AND WOMEN S HOSPITAL, published 2011).
No end group written: not given here.

Assays:
bovine serum albumin = molecular target: T1, bovine serum albumin (bovine, UniProt P02769 25-607); assay: phage ELISA on BSA-coated wells, anti-M13 HRP/ABTS
T1 construct: also called BSA
Description: The clones were tested against the random library (R0) for binding to Matrigel (lighter shaded bars) or BSA (black bars). Bound phages were labeled with peroxidase-conjugated anti-M13 monoclonal antibodies (mAbs), and ABTS absorbance at 405 nm was read against a reference wavelength of 490 nm (mean±s.d., n=3). (**) P<0.01; (***) P<0.001, all compared with R0 (one-way analysis of variance with Tukey post-hoc test).
96-well plates were coated with 100 μL 1/50 dilutions of Matrigel in TBS overnight at 4° C., or TBS buffer only. Plates were blocked with 3% BSA/TBS for 2 h at RT and washed three times. 10¹⁰ p.f.u. of each phage clone was added in 0.5% TBST in triplicate to either Matrigel or BSA-coated wells. Bound phage particles were detected with peroxidase-conjugated mouse anti-M13 monoclonal antibodies at 1/5000 dilution (Amersham Pharmacia Biotech, Piscataway, N.J.). After a 1 h incubation, the reaction was developed with 2,2′-azino-bis(3-ethylbenzthiazoline-6-sulphonic acid) (ABTS) (Amersham) and the absorbance was read at 405 nm against a reference wavelength of 490 nm with a SpectraMax Plus 384 Microplate reader (Molecular Devices, Sunnyvale, Calif.).

[1] = molecular target: T2, Matrigel growth factor reduced LDEV free (basement membrane extract rich in collagen IV and laminin); assay: phage titer count of eluted phage, input 10^12/mL p.f.u., against random library R0, n=3
T2 construct: A mixture coated on plates, not one protein

T1 sequence (P02769 25-607 limits assumed): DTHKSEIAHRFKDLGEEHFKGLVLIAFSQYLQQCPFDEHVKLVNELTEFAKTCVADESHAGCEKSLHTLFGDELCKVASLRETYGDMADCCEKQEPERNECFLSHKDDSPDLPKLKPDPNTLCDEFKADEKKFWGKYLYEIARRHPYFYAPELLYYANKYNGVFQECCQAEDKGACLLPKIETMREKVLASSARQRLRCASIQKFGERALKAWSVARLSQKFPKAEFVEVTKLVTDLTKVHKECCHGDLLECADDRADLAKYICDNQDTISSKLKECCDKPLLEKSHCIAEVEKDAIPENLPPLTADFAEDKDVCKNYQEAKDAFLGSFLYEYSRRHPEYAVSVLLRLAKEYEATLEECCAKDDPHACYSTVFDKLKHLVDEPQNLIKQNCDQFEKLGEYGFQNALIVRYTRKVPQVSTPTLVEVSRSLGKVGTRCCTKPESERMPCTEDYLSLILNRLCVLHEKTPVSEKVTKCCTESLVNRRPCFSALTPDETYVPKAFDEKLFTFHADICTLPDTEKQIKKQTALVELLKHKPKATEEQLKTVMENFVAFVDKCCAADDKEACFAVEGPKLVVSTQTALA

| Binder | binding result (bovine serum albumin) | fold binding compared to the library (R0), phage titer [1] [fold] |
| --- | --- | --- |
| KLWVLPK (Whole phage particle displaying the heptamer; tested as phage (ELISA with anti-M13 antibody, titer counts); also called Phage C-11; not shown: minor coat protein pIII of M13 filamentous phage (Ph.D.-7 library, New England Biolabs)) [phage clone C-11 (KLWVLPK displayed on pIII of M13 phage)] | no binding (tested: 10^10 p.f.u. of each phage clone) | ~300 |
| KIWKLPQ (Whole phage particle displaying the heptamer; tested as phage, detected with anti-M13 antibody; not shown: minor coat protein pIII of M13 filamentous phage (Ph.D.-7 library, New England Biolabs)) [phage clone C-10 (KIWKLPQ displayed on pIII of M13 phage)] | no binding (tested: 10^10 p.f.u. of each phage clone) |  |
| KVWSLPQ (Whole phage particle displaying the heptamer; tested as phage, detected with anti-M13 antibody; not shown: minor coat protein pIII of M13 filamentous phage (Ph.D.-7 library, New England Biolabs)) [phage clone A-8 (KVWSLPQ displayed on pIII of M13 phage)] | no binding (tested: 10^10 p.f.u. of each phage clone) |  |
| KIFVWPY (not fully specified, Whole phage particle displaying the heptamer; tested as phage, detected with anti-M13 antibody; not shown: minor coat protein pIII of M13 filamentous phage (Ph.D.-7 library, New England Biolabs)) [phage clone A-9 (KIFVWPY displayed on pIII of M13 phage)] | no binding (tested: 10^10 p.f.u. of each phage clone) |  |
| HWGSLRA (100% of the round 5 clones; not shown: minor coat protein pIII of M13 filamentous phage (Ph.D.-7 library, New England Biolabs)) [phage clone C-8 (HWGSLRA displayed on pIII of M13 phage)] | no binding (tested: 10^10 p.f.u. of each phage clone) |  |
